Sequences and labels used below:
B2: M1 ΔAA displayed on yeast (VHH, not shown: large carriers; small tags and cut ends)
chain: QVQLVESGGGLVQAGGSLRLSATASGRTGTIYSMAWFRQAPGKEREFLAPVALGLQSTYYMDSVKGRFTISRDKGKNTVYLQMDSLKPEDTAVYYATATRAYSVGYDYWGQGTQVTVSS
notes: also called acVHH-M1 C22A C96A
B3: His tag-acVHH-V104D, soluble (VHH, not shown: small tags and cut ends)
VHH: QVQLVESGGGLVQAGGSLRLSCTASGRTGTIYSMAWFRQAPGKEREFLATVGWSSGITYYMDSVKGRFTISRDKGKNTVYLQMDSLKPEDTAVYYCTATRAYSDGYDYWGQGTQVTVSS
notes: also called AB1; Tag-V104D
B4: M1 ΔFA displayed on yeast (VHH, not shown: large carriers; small tags and cut ends)
chain: QVQLVESGGGLVQAGGSLRLSFTASGRTGTIYSMAWFRQAPGKEREFLAPVALGLQSTYYMDSVKGRFTISRDKGKNTVYLQMDSLKPEDTAVYYATATRAYSVGYDYWGQGTQVTVSS
notes: also called acVHH-M1 C22F C96A
B5: M1 ΔWA displayed on yeast (VHH, not shown: large carriers; small tags and cut ends)
chain: QVQLVESGGGLVQAGGSLRLSWTASGRTGTIYSMAWFRQAPGKEREFLAPVALGLQSTYYMDSVKGRFTISRDKGKNTVYLQMDSLKPEDTAVYYATATRAYSVGYDYWGQGTQVTVSS
notes: also called acVHH-M1 C22W C96A
B6: M1 ΔAV displayed on yeast (VHH, not shown: large carriers; small tags and cut ends)
chain: QVQLVESGGGLVQAGGSLRLSATASGRTGTIYSMAWFRQAPGKEREFLAPVALGLQSTYYMDSVKGRFTISRDKGKNTVYLQMDSLKPEDTAVYYVTATRAYSVGYDYWGQGTQVTVSS
notes: also called acVHH-M1 C22A C96V
B7: M1 ΔWP displayed on yeast (VHH, not shown: large carriers; small tags and cut ends)
chain: QVQLVESGGGLVQAGGSLRLSWTASGRTGTIYSMAWFRQAPGKEREFLAPVALGLQSTYYMDSVKGRFTISRDKGKNTVYLQMDSLKPEDTAVYYPTATRAYSVGYDYWGQGTQVTVSS
notes: also called acVHH-M1 C22W C96P
B8: M1 ΔGW displayed on yeast (VHH, not shown: large carriers; small tags and cut ends)
chain: QVQLVESGGGLVQAGGSLRLSGTASGRTGTIYSMAWFRQAPGKEREFLAPVALGLQSTYYMDSVKGRFTISRDKGKNTVYLQMDSLKPEDTAVYYWTATRAYSVGYDYWGQGTQVTVSS
notes: also called acVHH-M1 C22G C96W
B9: acVHH-V104D displayed on yeast (Aga2p-HA-tag-(Gly4Ser)3 linker-acVHH-V104D-c-myc tag) (VHH, not shown: large carriers; small tags and cut ends)
VHH: QVQLVESGGGLVQAGGSLRLSCTASGRTGTIYSMAWFRQAPGKEREFLATVGWSSGITYYMDSVKGRFTISRDKGKNTVYLQMDSLKPEDTAVYYCTATRAYSDGYDYWGQGTQVTVSS
B10: M1 ΔVA displayed on yeast (VHH, not shown: large carriers; small tags and cut ends)
chain: QVQLVESGGGLVQAGGSLRLSVTASGRTGTIYSMAWFRQAPGKEREFLAPVALGLQSTYYMDSVKGRFTISRDKGKNTVYLQMDSLKPEDTAVYYATATRAYSVGYDYWGQGTQVTVSS
notes: also called acVHH-M1 C22V C96A
B11: M1 ΔAW displayed on yeast (VHH, not shown: large carriers; small tags and cut ends)
chain: QVQLVESGGGLVQAGGSLRLSATASGRTGTIYSMAWFRQAPGKEREFLAPVALGLQSTYYMDSVKGRFTISRDKGKNTVYLQMDSLKPEDTAVYYWTATRAYSVGYDYWGQGTQVTVSS
notes: also called acVHH-M1 C22A C96W

In test [1] the target is T1, acVHH-WT displayed on yeast (Aga2p-HA-tag-(Gly4Ser)3 linker-acVHH-WT-c-myc tag).
T1 construct: Yeast surface display fusion on S. cerevisiae EBY100
Nature of the test: yeast surface display; 400 nM soluble acVHH-WT, caffeine titrated (data of FIG. 3I); mean ± S.D. An excerpt: (§1) Measured with yeast display and normalized to maximum binding signal (n=3, averages±standard deviations).

Test [2] has as its target B3. Nature of the test: yeast surface display, flow cytometry (n=1). In general terms: A flow cytometer gives signals particle by particle.
The target in test [3] is T1, acVHH-WT displayed on yeast …. Nature of the test: yeast surface display, flow cytometry; soluble acVHH-V104D with 10 µM compound or without. The procedure:
Expression of the acVHH variants on yeast was induced by culturing the cells in SG-CAA medium (20 g/L galactose, 2 g/L glucose, 6.7 g/L yeast nitrogen base, 5 g/L bacto casamino acids, 10.2 g/L Na₂HPO₄*7 H₂O, 8.56 g/L NaH₂PO₄*H₂O) overnight at 20° C. and 180 rpm. Detection of full-length proteins on the surface of the cells was carried out by staining the cells with anti-c-myc AlexaFluor 488 (9E10, Thermo Fisher).

Test [4] concerns the target B6. Nature of the test: yeast surface display, flow cytometry; soluble acVHH-V104D with and without 10 µM caffeine (n=1).
Test [5] concerns the target B8. The test is described as above.
The target of test [6] is B10. Described as above.
Test [7] concerns the target B11. The description is as above.
In test [8] the target is B4. Described as above.
In test [9] the target is B5. The test is described as above.
Test [10] has as its target B2. The test is described as above.
In test [11] the target is B7. Described as above.
In test [12] the target is T2, dfM1-2 displayed on yeast (Aga2p-HA-tag-(Gly4Ser)3 linker-dfM1-2-c-myc tag).
T2 construct: also called disulfide free M1 variant
Nature of the test: yeast surface display titration with soluble acVHH-V104D, + caffeine (30 µM, data of FIG. 3H); mean ± S.D.

Test [13] deals with T3, dfM1-1 displayed on yeast (Aga2p-HA-tag-(Gly4Ser)3 linker-dfM1-1-c-myc tag).
T3 construct: also called disulfide free M1 variant
The test is described as above.

Test [14] addresses T4, acVHH-M1 displayed on yeast (Aga2p-HA-tag-(Gly4Ser)3 linker-acVHH-M1-c-myc tag).
T4 construct: also called AB2
The description is as above.

The target of test [15] is B9. Nature of the test: yeast surface display, flow cytometry; soluble acVHH-V104D with and without 10 µM caffeine. How it is done: (§2) The staining for flow cytometry characterization was performed in PBSA (PBS containing 15 μM bovine serum albumin). […] After a final washing step, the cells were analyzed with a CytoFLEX S flow cytometer (Beckman Coulter).
For test [16], the target named is T2, dfM1-2 displayed on yeast …. Nature of the test: yeast surface display; 400 nM soluble acVHH-V104D, caffeine titrated (data of FIG. 3I); mean ± S.D. The procedure:
(§3) Expression of the variants on yeast was carried out in SG-CAA as described above.
as §1

Test [17] concerns the target T3, dfM1-1 displayed on yeast …. Described as above. How it is done:
as §3, §1

Test [18] addresses T4, acVHH-M1 displayed on yeast …. The test is described as above. The procedure:
as §3, §1

Test [19] deals with T2, dfM1-2 displayed on yeast …. Briefly: yeast surface display titration with soluble acVHH-V104D, 30 µM caffeine, signal normalised to the maximum.
Test [20] deals with T3, dfM1-1 displayed on yeast …. The description is as above.
The target in test [21] is T4, acVHH-M1 displayed on yeast …. The test is described as above.
Test [22] concerns the target B3. Briefly: yeast surface display, flow cytometry. How it is done:
as §2

The source of these data is patent US20240400722A1 (MILTENYI BIOTEC B V, published 2024).

T1 sequence (chain, as listed by the source): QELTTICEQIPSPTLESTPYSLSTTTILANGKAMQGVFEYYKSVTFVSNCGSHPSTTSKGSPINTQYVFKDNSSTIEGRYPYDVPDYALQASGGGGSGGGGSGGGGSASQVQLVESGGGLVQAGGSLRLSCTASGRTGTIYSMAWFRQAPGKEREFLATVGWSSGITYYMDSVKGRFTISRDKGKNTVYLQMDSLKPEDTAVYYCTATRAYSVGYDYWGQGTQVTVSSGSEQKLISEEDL

B1: His tag-acVHH-WT anti-caffeine nanobody, soluble (VHH)
VHH: QVQLVESGGGLVQAGGSLRLSCTASGRTGTIYSMAWFRQAPGKEREFLATVGWSSGITYYMDSVKGRFTISRDKGKNTVYLQMDSLKPEDTAVYYCTATRAYSVGYDYWGQGTQVTVSS
notes: Expressed in E. coli; also called AB0; not shown: His tag
For B1, in test [1], the “EC50,YSD (caffeine concentration for half-maximal dimerisation)” value was found to be 4300 nM.
With B2, the binding result in test [2] is “no binding”.
Take B3: the binding result in test [3], in [4], in test [5], in [6], in test [7] and in test [8] was “no binding (tested: 500 nM)” throughout. The binding result in test [9], in test [10], in [11] and in test [15] was “no binding (tested: 500 nM)” in each case. Moreover, the Kd was 21.8 nM in test [12], 18.8 nM in test [13] and 30 nM in [14]. For the same molecule, the “EC50,YSD (caffeine concentration for half-maximal dimerisation)” value in [16] is 124000 nM; in test [17], 83000 nM; in [18] it was 104000 nM. Further, the figures for the “EC50 (read off the curve)” value in [19], in [20] and in test [21] were ~20 nM, ~20 nM and ~30 nM, respectively.
As for B4, the binding result in [2] is “no binding”.
B5: the binding result in [2] is “no binding”.
B6: the binding result in [2] was “no binding”.
Regarding B7, in [2], the binding result was “no binding”.
Same read-out and setting: then B8, with “no binding”.
For B9, in test [22], the binding result is reported as “no binding”.
For the molecule B10, the binding result in test [2] is listed as “no binding”.
Consider B11, for which the binding result in test [2] is “no binding”.

By Kd is commonly meant the equilibrium constant for the complex coming apart. Broadly, the EC50 (read off the curve) is the concentration giving half of the maximal effect. High values mean lower potency in that assay, low ones higher potency in that assay.
